Measurements taken from patent US20190212291.

Assays:
PEG-T7-Q = biological target: T1, PEG-T7-Q
T1 chain: GGPLGVRGKKC

B1: ADAM12 (protein)
chain: ETLKATKYVELVIVADNREFQRQGKDLEKVKQRLIEIANHVDKFYRPLNIRIVLVGVEVWNDMDKCSVSQDPFTSLHEFLDWRKMKLLPRKSHDNAQLVSGVYFQGTTIGMAPIMSMCTADQSGGIVMDHSDNPLGAAVTLAHELGHNFGMNHDTLDRGCSCQMAVEKGGCIMNASTGYPFPMVFSSCSRKDLETSLEKGMGVCLFNLPEVRESFGGQKCGNRFVEEGEECDCGEPEECMNRCCNATTCTLKPDAVCAHGLCCEDCQLKPAGTACRDSSNSCDLPEFCTGASPHCPANVYLHDGHSCQDVDGYCYNGICQTHEQQCVTLWGPGAKPAPGICFERVNSAGDPYGNCGKVSKSSFAKCEMRDAKCGKIQCQGGASRPVIGTNAVSIETNIPLQQGGRILCRGTHVYLGDDMPDPGLVLAGTKCADGKICLNRQCQNISVFGVHECAMQCHGRGVCNNRKNCHCEAHWAPPFCDKFGFGGSTDSGPIRQADNQG
- Second hit (cleavage of PEG-coupled FRET substrate by recombinant proteases) (PEG-T40-Q): ADAM12
- Top hit (cleavage of PEG-coupled FRET substrate by recombinant proteases) (PEG-T54-Q): ADAM12
- Top hit (cleavage of PEG-coupled FRET substrate by recombinant proteases); additional note: Poorly cleaved (PEG-T41-Q): ADAM12

B2: KLK4 (protein)
chain: IINGEDCSPHSQPWQAALVMENELFCSGVLVHPQWVLSAAHCFQNSYTIGLGLHSLEADQEPGSQMVEASLSVRHPEYNRPLLANDLMLIKLDESVSESDTIRSISIASQCPTAGNSCLVSGWGLLANGRMPTVLQCVNVSVVSEEVCSKLYDPLYHPSMFCAGGGHDQKDSCNGDSGGPLICNGYLQGLVSFGKAPCGQVGVPGVYTNLCKFTEWIEKTVQAS
- Top hit (cleavage of PEG-coupled FRET substrate by recombinant proteases) (PEG-T51-Q): KLK4
- substrate cleavage (PEG-T51-Q): T40 and T51 are cleaved by MMP26 and KLK4, respectively

B3: MMP11 (protein)
chain: FVLSGGRWEKTDLTYRILRFPWQLVQEQVRQTMAEALKVWSDVTPLTFTEVHEGRADIMIDFARYWHGDDLPFDGPGGILAHAFFPKTHREGDVHFDYDETWTIGDDQGTDLLQVAAHEFGHVLGLQHTTAAKALMSAFYTFRYPLSLSPDDCRGVQHLYGQPWPTVTSRTPALG
- Top hit (cleavage of PEG-coupled FRET substrate by recombinant proteases) (PEG-T53-Q): MMP11

B4: KLK14 (protein)
chain: IIGGHTCTRSSQPWQAALLAGPRRRFLCGGALLSGQWVITAAHCGRPILQVALGKHNLRRWEATQQVLRVVRQVTHPNYNSRTHDNDLMLLQLQQPARIGRAVRPIEVTQACASPGTSCRVSGWGTISSPIARYPASLQCVNINISPDEVCQKAYPRTITPGMVCAGVPQGGKDSCQGDSGGPLVCRGQLQGLVSWGMERCALPGYPGVYTNLCKYRSWIEETMRDK
- Top hit (cleavage of PEG-coupled FRET substrate by recombinant proteases) (PEG-T49-Q): KLK14
- Top hit (cleavage of PEG-coupled FRET substrate by recombinant proteases) (PEG-T50-Q): KLK14

B5: PRSS3 (protein)
chain: IVGGYTCEENSLPYQVSLNSGSHFCGGSLISEQWVVSAAHCYKTRIQVRLGEHNIKVLEGNEQFINAAKIIRHPKYNRDTLDNDIMLIKLSSPAVINARVSTISLPTTPPAAGTECLISGWGNTLSFGADYPDELKCLDAPVLTQAECKASYPGKITNSMFCVGFLEGGKDSCQRDSGGPVVCNGQLQGVVSWGHGCAWKNRPGVYTKVYNYVDWIKDTIAANS
- Second hit (cleavage of PEG-coupled FRET substrate by recombinant proteases) (PEG-T49-Q): PRSS3
- Second hit (cleavage of PEG-coupled FRET substrate by recombinant proteases) (PEG-T58-Q): PRSS3

B6: MMP26 (protein)
chain: TSISPGRCKWNKHTLTYRIINYPHDMKPSAVKDSIYNAVSIWSNVTPLIFQQVQNGDADIKVSFWQWAHEDGWPFDGPGGILGHAFLPNSGNPGVVHFDKNEHWSASDTGYNLFLVATHEIGHSLGLQHSGNQSSIMYPTYWYHDPRTFQLSADDIQRIQHLYGEKCSSDIP
- Top hit (cleavage of PEG-coupled FRET substrate by recombinant proteases) (PEG-T40-Q): MMP26
- substrate cleavage (PEG-T40-Q): T40 and T51 are cleaved by MMP26 and KLK4, respectively
- Second hit (cleavage of PEG-coupled FRET substrate by recombinant proteases) (PEG-T53-Q): MMP26
- Second hit (cleavage of PEG-coupled FRET substrate by recombinant proteases) (PEG-T7-Q): MMP26

B7: KLK12 (protein)
chain: IFNGTECGRNSQPWQVGLFEGTSLRCGGVLIDHRWVLTAAHCSGSRYWVRLGEHSLSQLDWTEQIRHSGFSVTHPGYLGASTSHEHDLRLLRLRLPVRVTSSVQPLPLPNDCATAGTECHVSGWGITNHPRNPFPDLLQCLNLSIVSHATCHGVYPGRITSNMVCAGGVPGQDACQGDSGGPLVCGGVLQGLVSWGSVGPCGQDGIPGVYTYICKYVDWIRMIMRNN
- Second hit (cleavage of PEG-coupled FRET substrate by recombinant proteases) (PEG-T50-Q): KLK12
